Positions count from the first letter of the chain named.
B1: hu CD45 HC2 + LC1 (antibody, V domains shown)
VH: EVQLLESGGGLVQPGGSLRLSCAASGFDFSRYWMSWVRQAPGKGLEWVSEINPTSSTINYADSVKGRFTISRDNSKNTLYLQMNSLRAEDTAVYYCARGNYYRYGDAMDYWGQGTMVTVSS
VL: DIVMTQSPDSLAVSLGERATINCKSSKSVSTSGYSYLHWYQQKPGQPPKLLIYLASNLESGVPDRFSGSGSGTDFTLTISSLQAEDVAVYYCQHSRELPFTFGQGTKLEIK
B2: hu CD45 HC3 + LC4 (antibody, V domains shown)
VH: B1 VH with L5V, S49A, Y60F, A61V, S75A, T78S
VL: DIQMTQSPSSLSASVGDRVTITCRASKSVSTSGYSYLHWYQQKPGKAPKLLIYLASNLQSGVPSRFSGSGSGTDFTLTISSLQPEDFATYYCQHSRELPFTFGQGTKLEIK
B3: hu CD45 HC4 + LC4 (antibody, V domains shown)
VH: B1 VH with L5V, Q13K, S75A, T78S
VL: B2 VL
B4: hu CD45 HC2 + LC4 (antibody, V domains shown)
VH: B1 VH
VL: B2 VL
B5: hu CD45 HC2 + LC3 (antibody, V domains shown)
VH: B1 VH
VL: EIVLTQSPATLSLSPGERATLSCRASKSVSTSGYSYLHWYQQKPGQAPRLLIYLASNLATGIPARFSGSGSGTDFTLTISSLEPEDFAVYYCQHSRELPFTFGQGTKLEIK
B6: hu CD45 HC4 + LC3 (antibody, V domains shown)
VH: B1 VH with L5V, Q13K, S75A, T78S
VL: B5 VL
B7: hu CD45 HC3 + LC1 (antibody, V domains shown)
VH: B1 VH with L5V, S49A, Y60F, A61V, S75A, T78S
VL: B1 VL
B8: hu CD45 HC4 + LC1 (antibody, V domains shown)
VH: B1 VH with L5V, Q13K, S75A, T78S
VL: B1 VL

Target: rhCD45 His tag (human) (UniProt P08575)
Experiment: BLI (Octet HTX), compared with the parental antibody

Chain of UniProt P08575 (P08575 26-577): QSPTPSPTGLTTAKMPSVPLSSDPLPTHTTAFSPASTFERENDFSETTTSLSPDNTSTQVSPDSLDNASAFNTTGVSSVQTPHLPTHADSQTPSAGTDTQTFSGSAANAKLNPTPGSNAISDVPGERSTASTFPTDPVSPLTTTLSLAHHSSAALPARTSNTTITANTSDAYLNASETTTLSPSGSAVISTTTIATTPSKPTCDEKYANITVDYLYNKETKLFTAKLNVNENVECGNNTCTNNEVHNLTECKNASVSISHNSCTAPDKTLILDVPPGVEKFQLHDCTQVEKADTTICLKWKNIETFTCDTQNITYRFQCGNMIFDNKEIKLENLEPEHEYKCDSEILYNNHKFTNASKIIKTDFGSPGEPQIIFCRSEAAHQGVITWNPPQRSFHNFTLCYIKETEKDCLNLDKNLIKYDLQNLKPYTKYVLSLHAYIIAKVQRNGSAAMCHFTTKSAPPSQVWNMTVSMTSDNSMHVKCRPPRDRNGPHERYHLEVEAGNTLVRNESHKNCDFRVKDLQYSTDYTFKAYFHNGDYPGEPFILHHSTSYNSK

Binder | fold change in KD relative to the parental antibody [fold]
B1 | < 10
B2 | < 10
B3 | < 10
B4 | < 10
B5 | < 10
B6 | < 10
B7 | < 10
B8 | < 10

Reference: US20240301081A1
